Results from paper PMC10441885.

Biological target: recombinant PsCAT1 fusion protein (His6-SUMO-PsCAT1 without the signal peptide, from pET15b-SUMO-PsCAT1) (Puccinia striiformis f. sp. tritici)
Test: SEC

**Q.** For “recombinant PsCAT1 fusion protein (His6-SUMO-PsCAT1 without the signal peptide, from pET15b-SUMO-PsCAT1) (enzyme)”, which stoichiometry N is on record?
**A.** The stoichiometry N was 23.
